Results published in FireProtDB (doi:10.1021/bi036049+).
Several values for one entry are separate records, joined by “and”; a condition that tells them apart may be missing. Equal entries are not always repeated.

Details: Thermal, CD, whole UniProt chain shown

B1: Iron-sulfur cluster assembly protein CyaY wild type, P27838 (protein)
chain: MNDSEFHRLADQLWLTIEERLDDWDGDSDIDCEINGGVLTITFENGSKIIINRQEPLHQVWLATKQGGYHFDLKGDEWICDRSGETFWDLLEQAATQQAGETVSFR
B1 gave a Tm (Escherichia coli (strain K12), pH 6, phosphate 20 mM, reversible: yes (>95%)) of 53.5 °C, a Tm (Escherichia coli (strain K12), pH 7, Hepes 10 mM, CaCl2 1 mM, reversible: yes (>95%)) of 62.7 °C and a Tm (Escherichia coli (strain K12), pH 7, Hepes 10 mM, reversible: yes (86%)) of 61.2 °C. For the same protein, the Tm (Escherichia coli (strain K12), pH 7, Hepes 10 mM, reversible: yes (>95%)) was 50.4 °C, the Tm (Escherichia coli (strain K12), pH 7, phosphate 20 mM, reversible: yes (>95%)) was 53.8 °C and the Tm (Escherichia coli (strain K12), pH 7.5, Hepes 10 mM, reversible: yes (86%)) was 60.5 °C. The Tm (Escherichia coli (strain K12), pH 7.5, Hepes 10 mM, reversible: yes (>95%)) was 54.8 °C and 58.3 °C, the Tm (Escherichia coli (strain K12), pH 8, phosphate 20 mM, reversible: yes (>95%)) was 53.8 °C and the Tm (Escherichia coli (strain K12), pH 8, phosphate 200 mM, reversible: yes (>95%)) was 45.8 °C.

B2: Frataxin, mitochondrial wild type, Q16595 (protein)
chain: MWTLGRRAVAGLLASPSPAQAQTLTRVPRPAELAPLCGRRGLRTDIDATCTPRRASSNQRGLNQIWNVKKQSVYLMNLRKSGTLGHPGSLDETTYERLAEETLDSLAEFFEDLADKPYTFEDYDVSFGSGVLTVKLGGDLGTYVINKQTPNKQIWLSSPSSGPKRYDWTGKNWVYSHDGVSLHELLAAELTKALKTKLDLSSLAYSGKDA
With B2 the Tm (Homo sapiens, pH 6, phosphate 150 mM, reversible: yes (>95%)) was 64.9 °C, the Tm (Homo sapiens, pH 7, Hepes 10 mM, CaCl2 1 mM, reversible: yes (>95%)) was 65.9 °C and the Tm (Homo sapiens, pH 7, Hepes 10 mM, NaCl 150 mM, reversible: yes (>95%)) was 65 °C. The Tm (Homo sapiens, pH 7, Hepes 10 mM, reversible: yes (88%)) was 68.6 °C, the Tm (Homo sapiens, pH 7, phosphate 20 mM, reversible: yes (>95%)) was 60 °C and the Tm (Homo sapiens, pH 7, phosphate 150 mM, reversible: yes (>95%)) was 65.7 °C.

B3: Frataxin homolog, mitochondrial wild type, Q07540 (protein)
chain: MIKRSLASLVRVSSVMGRRYMIAAAGGERARFCPAVTNKKNHTVNTFQKRFVESSTDGQVVPQEVLNLPLEKYHEEADDYLDHLLDSLEELSEAHPDCIPDVELSHGVMTLEIPAFGTYVINKQPPNKQIWLASPLSGPNRFDLLNGEWVSLRNGTKLTDILTEEVEKAISKSQ
Work on B3 yielded a Tm (Saccharomyces cerevisiae (strain ATCC 204508 / S288c), pH 6, phosphate 20 mM, reversible: yes (>95%)) of 39.9 °C, a Tm (Saccharomyces cerevisiae (strain ATCC 204508 / S288c), pH 6, phosphate 150 mM, reversible: yes (>95%)) of 49 °C and a Tm (Saccharomyces cerevisiae (strain ATCC 204508 / S288c), pH 7, Hepes 10 mM, CaCl2 1 mM, reversible: yes (>95%)) of 51.1 °C. For the same protein, the Tm (Saccharomyces cerevisiae (strain ATCC 204508 / S288c), pH 7, Hepes 10 mM, CaCl2 150 mM, reversible: yes (>95%)) was 52.9 °C, the Tm (Saccharomyces cerevisiae (strain ATCC 204508 / S288c), pH 7, Hepes 10 mM, NaCl 150 mM, reversible: yes (>95%)) was 44.6 °C and the Tm (Saccharomyces cerevisiae (strain ATCC 204508 / S288c), pH 7, Hepes 10 mM, NaF 150 mM, reversible: yes (>95%)) was 44.8 °C. For the same protein, the Tm (Saccharomyces cerevisiae (strain ATCC 204508 / S288c), pH 7, phosphate 150 mM, reversible: yes (>95%)) was 48.6 °C and 53.6 °C, the Tm (Saccharomyces cerevisiae (strain ATCC 204508 / S288c), pH 7.2, Hepes 10 mM, NaF 150 mM, reversible: yes (>95%)) was 46.9 °C and the Tm (Saccharomyces cerevisiae (strain ATCC 204508 / S288c), pH 7.2, Hepes 10 mM, reversible: No) was 44.8 °C. It also gave a Tm (Saccharomyces cerevisiae (strain ATCC 204508 / S288c), pH 7.2, Hepes 10 mM, reversible: yes (47%)) of 42.3 °C, a Tm (Saccharomyces cerevisiae (strain ATCC 204508 / S288c), pH 7.2, Hepes 10 mM, reversible: yes (86%)) of 37.9 °C and a Tm (Saccharomyces cerevisiae (strain ATCC 204508 / S288c), pH 7.4, Hepes 10 mM, reversible: yes (>95%)) of 35.5 °C. It also gave a Tm (Saccharomyces cerevisiae (strain ATCC 204508 / S288c), pH 8, phosphate 150 mM, reversible: yes (>95%)) of 45.9 °C.
